This note sets out measurements from patent publication US10000771B2, “Nuclear targeting sequences” (Yeda Research and Development Co. Ltd., priority 2007, dated 2018).

The subject of assay [1] is COS7 cells. As to the kind of experiment: Subcellular fractionation of GFP-ERK2 constructs. The format is cell-based. The settings on record: 48 hr after transfection, serum-starved. Here is the method:
FIG. 6 is an autoradiograph illustrating the subcellular fractionation of WT-GFP-ERK2 (WT), APA-GFP-ERK2 (APA), or EPE-GFP-ERK2 (EPE). COS7 cells were grown in 10 cm plates and transfected with the above ERK2 constructs. Twenty-four hr after transfection the cells were serum-starved for 16 hr and subjected to cellular fractionation as described under materials and Methods. Western blot analysis of aliquots of the fractions were stained with anti GFP Ab to detect the ERK2 and its mutant, and with anti tubulin and anti c-Jun Abs as markers for the cytoplasmic and nuclear fractions respectively.
Cellular Fractionation: Transfected COS7 cells were starved (0.1% FBS) for 16 h, after which they were washed with ice-cold PBS, suspended in ice-cold buffer H, and centrifuged (12,000×g, 5 min). Then, the nuclear and cytosolic fractions were isolated as described [H. Rubinfeld, T. Hanoch, R. Seger, J. Biol. Chem. 274, 30349 (1999)]. Briefly, the pellets were suspended in 0.1% NP-40 followed by centrifugation (12,000×g, 5 min). The supernatant, containing the cytosolic fraction, was boiled in sample buffer. The pellet was suspended in extraction buffer (420 mM Nacl, 50 mM β-glycerophosphate, 0.5 mM Na3VO4, 1.5 mM MgCl2, 0.2 mM EDTA, 1 mM DTT, 25% glycerol), incubate on ice for 10 min, sonicated (50 W, 2×7 sec), and centrifuged (12,000×g, 5 min). […]

Assay [2] deals with CHO cells. As to the kind of experiment: Fluorescence microscopy of ERK2 constructs (subcellular localization). The format is cell-based. Here is the method: FIGS. 1A-1R are photomicrographs illustrating the role of SPS in the non-regulated accumulation of ERK2 in the nucleus. CHO (FIGS. 1A-F and 1M-R) or COS7 cells (FIGS. 1G-L) were grown on cover slips and transfected with WT-ERK2, or the mutants 244-6A and Δ244-6. Twenty-four hr following transfection, the cells were serum-starved (16 hr), fixed, stained with DAPI and visualized using a fluorescent microscope.
FIGS. 2A-2X are photomicrographs illustrating the role of SPS in the stimulated nuclear translocation of ERK2. CHO cells were grown on cover slips and co-transfected with HA-MEK1 together with either WT-ERK2, 244-6A, or Δ244-6. Twenty-four hr after transfection, the cells were serum starved for 16 hours, treated with TPA (250 nM, 15 min), except in WT-10 where the cells were treated with 10 nM TPA for 15 min. After treatments the cells were fixed and stained with either anti-HA Ab or DAPI.
FIGS. 5A-5F are photomicrographs illustrating that mutating the Ser residues in the SPS to Glu induces the nuclear accumulation of ERK2. CHO cells were grown on cover slips and transfected with WT-GFP-ERK2 (WT), APA-GFP-ERK2 (APA), or EPE-GFP-ERK2 (EPE). Twenty-four hr after transfection, the cells were serum-starved, fixed, stained with DAPI and visualized by a fluorescent microscope.
FIGS. 7A-7H are photomicrographs illustrating that EPE-ERKs translocates to the nucleus faster than WT-ERK. CHO cells were transfected with WT-GFP-ERK2 (WT) and EPE-GFP-ERK2 (EPE). Eight (FIGS. 7A-D) or twelve (FIGS. 7E-H) hours after transfection the cells were fixed, stained with DAPI and visualized by a fluorescent microscope.
Immunofluorescence Microscopy. Cells were fixed (30 min in 3% paraformaldehyde in PBS or 10 min with ice-cold methanol), followed by 5-min permeabilization with 0.2% Triton X-100 in PBS (23° C.). The fixed cells were sequentially incubated with the appropriate Abs (45 min) followed by rhodamine-conjugated secondary Abs (45 min) and DAPI. Slides were visualized using a fluorescence microscope (Nikon, Japan) at 400× magnifications. […]

The target of assay [3] is T1, importin-7 (Homo sapiens, UniProt O95373).
T1 construct: endogenous in cells; host or cells: HeLa
As to the kind of experiment: Coimmunoprecipitation with importin-7. The format is binding. The settings on record: HeLa cells, coimmunoprecipitation with anti GFP Ab, with or without stimulation. Here is the method: (§1) FIGS. 19A-19C are autoradiographs illustrating that phospho-SPS interacts with importin-7 and releases Nup153c binding without involvment of importin-β. […]. Interaction of ERK2 with Importin-7 is enhanced by EGF stimulation and EPE mutation. HeLa cells overexpressing WT-ERK (WT), ERK-APA (APA), ERK-EPE (EPE) or GFP were serum starved and treated with EGF (50 ng/ml, 10 min). The extracts of the treated cells were then subjected to coimmunoprecipitation using A/G beads pre-conjugated with anti GFP Ab and mild washes. The coimmunoprecipitated importin-7 (first panel) and importin-β (third panel), as well as their loading amounts (panels 2 and 4 respectively) were determined by WB using anti importin-7 (αImp7) and importin-β (αImpβ) Abs. The equal amount of immunoprecipitated ERKs was determined with anti GFP (αGFP; IP) Ab. FIG. 19B. Interaction of 2GFP-SPS and its mutants with importin-7. HeLa cells overexpressing 2GFP, 2GFP-SPS, 2GFP-APA and 2GFP-EPE constructs were subjected to coimmunoprecipitation as described in FIG. 19A (without EGF stimulation). FIG. 19C. Interaction of NUP153 with WTERK2 and its APA and EPE mutants. NUP153c is elevated in APA-ERK2, but reduced in EPE-ERK2. Immunoprecipitated and stringently washed WT-ERK2 (WT), APA-ERK2 (APA) or ERK2 from […] cells pre-treated with or without TPA (250 nM, 15 min) were incubated with 0.5 μg recombinant His-Nup153c. […]

Assay [4] concerns Nup153c. Description: Interaction with recombinant His-Nup153c. The format is binding. The settings on record: immunoprecipitated ERK2 incubated with 0.5 μg recombinant His-Nup153c. Here is the method: as §1
The subject of assay [5] is COS7 cells. Description: Proliferation assay of COS7 cells overexpressing ERK2 constructs. The settings on record: 72 hours after transfection. The format is cell-based. Here is the method:
FIG. 16 is a bar graph illustrating that the prevention of SPS phosphorylation inhibits proliferation. COS7 cells overexpressing WT-ERK2, 244-6A-ERK2, ▴244-6-ERK2, APA-ERK2 or EPE-ERK2 were subjected to proliferation assay 72 hours after transfection. The bar graph represent the mean+/−SD (n=3), Student t test was used for statistical analysis (*, p<0.01).

T1 sequence (O95373 whole entry): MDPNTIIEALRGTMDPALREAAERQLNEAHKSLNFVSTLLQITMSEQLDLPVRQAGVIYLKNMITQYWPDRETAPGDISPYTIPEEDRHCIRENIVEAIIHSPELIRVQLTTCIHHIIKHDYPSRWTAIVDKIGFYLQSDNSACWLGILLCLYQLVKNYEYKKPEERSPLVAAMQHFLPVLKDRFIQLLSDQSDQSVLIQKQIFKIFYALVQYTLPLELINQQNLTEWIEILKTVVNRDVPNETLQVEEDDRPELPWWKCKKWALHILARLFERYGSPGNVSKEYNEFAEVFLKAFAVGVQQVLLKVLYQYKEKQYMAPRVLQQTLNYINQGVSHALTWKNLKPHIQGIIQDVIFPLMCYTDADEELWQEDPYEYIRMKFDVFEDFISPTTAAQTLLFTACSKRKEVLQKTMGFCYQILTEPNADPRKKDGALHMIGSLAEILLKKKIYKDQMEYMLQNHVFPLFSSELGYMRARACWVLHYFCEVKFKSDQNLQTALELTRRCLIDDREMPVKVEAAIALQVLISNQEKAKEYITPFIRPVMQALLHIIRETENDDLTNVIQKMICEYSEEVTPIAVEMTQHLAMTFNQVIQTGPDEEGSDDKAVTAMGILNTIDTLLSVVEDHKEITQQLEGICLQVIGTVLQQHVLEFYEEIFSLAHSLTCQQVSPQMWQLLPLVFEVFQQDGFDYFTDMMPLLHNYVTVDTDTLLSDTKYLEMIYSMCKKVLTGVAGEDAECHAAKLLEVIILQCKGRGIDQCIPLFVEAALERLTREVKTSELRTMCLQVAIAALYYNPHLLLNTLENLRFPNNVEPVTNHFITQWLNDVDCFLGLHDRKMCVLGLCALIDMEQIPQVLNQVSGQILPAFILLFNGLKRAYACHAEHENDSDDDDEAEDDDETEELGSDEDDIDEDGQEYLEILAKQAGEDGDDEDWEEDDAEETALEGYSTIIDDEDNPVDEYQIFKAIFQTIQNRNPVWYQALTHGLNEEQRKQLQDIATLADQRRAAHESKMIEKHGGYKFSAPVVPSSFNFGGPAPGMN

B1: EPE-ERK2: GFP-ERK2 with the two Ser residues of the SPS domain replaced with Glu (phosphomimetic) (protein)
chain: MAAAAAAGPEMVRGQVFDVGPRYTNLSYIGEGAYGMVCSAYDNLNKVRVAIKKISPFEHQTYCQRTLREIKILLRFRHENIIGINDIIRAPTIEQMKDVYIVQDLMETDLYKLLKTQHLSNDHICYFLYQILRGLKYIHSANVLHRDLKPSNLLLNTTCDLKICDFGLARVADPDHDHTGFLTEYVATRWYRAPEIMLNSKGYTKSIDIWSVGCILAEMLSNRPIFPGKHYLDQLNHILGILGEPEQEDLNCIINLKARNYLLSLPHKNKVPWNRLFPNADSKALDLLDKMLTFNPHKRIEVEQALAHPYLEQYYDPSDEPIAEAPFKFDMELDDLPKEKLKELIFEETARFQPGYRS
modifications: left off: large carriers
B1: the “localized in the nucleus” value in assay [1] is ~95%. Moreover, the “speed of translocation into the nucleus” value in assay [2] (CHO cells, shortly (8 or 12 hours) after transfection) is on record as “faster than WT-ERK2”. In assay [2] (overexpressed in CHO (and COS7) cells, serum-starved, fluorescent microscope), the “subcellular localization in quiescent cells” value was “pronounced nuclear localization”. Further, in assay [3], the “interaction of ERK2 constructs with importin-7” value was “dramatically increased the interaction”. The “interaction with Nup153” value in assay [4] was “reduced”. Also, the serum-induced cell proliferation entry in assay [5] is recorded as “slightly enhanced”.
